The record followed here is patent publication US20250223580.

Data set [1] has as its system Csx30 from Desulfonema ishimotonii, full length.
The test system of data set [2] is HA-Csx30 S526A/Q428A/R530A/Q531A.
Data set [3] has as its system N-terminal HA-tagged Csx30 alanine mutants of individual regions of the Csx29-Csx30 interface.
Data set [4] has as its system Csx30 fragment, residues 396-565.
The subject of data set [5] is TwinStrep-SUMO-Csx30 1-544 (C-terminal truncation of Csx30).

Sequence of Csx30 from Desulfonema ishimotonii, full length (chain, as listed by the source): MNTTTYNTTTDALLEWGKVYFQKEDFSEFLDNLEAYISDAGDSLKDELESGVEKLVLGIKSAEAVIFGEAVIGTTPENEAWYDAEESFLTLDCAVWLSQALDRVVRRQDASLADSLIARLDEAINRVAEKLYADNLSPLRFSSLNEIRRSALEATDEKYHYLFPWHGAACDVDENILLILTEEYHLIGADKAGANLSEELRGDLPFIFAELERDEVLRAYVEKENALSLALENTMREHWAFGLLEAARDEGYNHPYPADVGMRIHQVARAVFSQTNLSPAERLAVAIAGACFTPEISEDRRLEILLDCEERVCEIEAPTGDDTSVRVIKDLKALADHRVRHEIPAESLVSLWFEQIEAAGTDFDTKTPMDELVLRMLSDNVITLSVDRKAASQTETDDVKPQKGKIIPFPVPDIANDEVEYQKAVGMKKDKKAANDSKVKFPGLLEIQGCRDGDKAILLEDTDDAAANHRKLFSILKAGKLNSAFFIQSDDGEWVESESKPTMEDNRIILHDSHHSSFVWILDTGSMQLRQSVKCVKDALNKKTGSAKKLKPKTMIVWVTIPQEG
Sequence of TwinStrep-SUMO-Csx30 1-544 (C-terminal truncation of Csx30) (chain, as listed by the source): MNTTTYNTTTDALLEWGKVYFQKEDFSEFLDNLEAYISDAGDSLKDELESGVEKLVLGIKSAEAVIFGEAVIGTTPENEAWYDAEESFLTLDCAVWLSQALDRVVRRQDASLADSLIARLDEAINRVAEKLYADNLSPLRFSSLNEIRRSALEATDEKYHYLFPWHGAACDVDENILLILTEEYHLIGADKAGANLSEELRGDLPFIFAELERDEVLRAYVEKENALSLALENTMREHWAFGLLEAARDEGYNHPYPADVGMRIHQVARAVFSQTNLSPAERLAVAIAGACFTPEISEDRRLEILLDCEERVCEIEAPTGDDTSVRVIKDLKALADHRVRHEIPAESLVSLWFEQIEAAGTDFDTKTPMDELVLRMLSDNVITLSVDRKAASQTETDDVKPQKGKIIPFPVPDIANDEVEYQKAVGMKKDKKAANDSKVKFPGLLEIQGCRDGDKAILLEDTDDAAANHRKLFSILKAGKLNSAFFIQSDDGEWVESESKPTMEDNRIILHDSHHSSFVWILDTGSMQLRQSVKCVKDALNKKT
Sequence of Csx30 fragment, residues 396-565 (chain, as listed by the source): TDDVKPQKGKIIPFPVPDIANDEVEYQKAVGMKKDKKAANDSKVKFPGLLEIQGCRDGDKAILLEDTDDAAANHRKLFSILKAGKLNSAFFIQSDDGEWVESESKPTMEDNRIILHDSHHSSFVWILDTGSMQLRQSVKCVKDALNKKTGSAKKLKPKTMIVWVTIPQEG

Consider Cas7-11-Csx29-crRNA complex, for which the “cleavage of Csx30 in in vitro reactions (immunoblot, SDS-PAGE)” value in data set [1] is given as “Csx30, is specifically cleaved in response to a target RNA”. For the same substance, the “cleavage of Up1 within the purified Up1-Up3 complex (SDS-PAGE, Coomassie)” value in data set [1] is “only in the lane with gRAMP-CHAT + and target RNA + do bands appear at about 50 kDa and just above 15 kDa, with a weaker Up1 band; the lanes without gRAMP-CHAT, or with gRAMP-CHAT and no target RNA, show only Up1 and Up3; the Up3 band is unchanged”. Moreover, the “stated: cleaved (target-RNA-dependent cleavage of HA-Csx30, anti-HA immunoblot)” value was “Wildtype: without target RNA only the upper full-length band; with target RNA the upper band is weak and a strong product band stands just above the 50 kDa mark” in data set [1]; “K551A/K553A: without target RNA only the upper full-length band; with target RNA a product band just above the 50 kDa mark, and a weaker upper band remains” in the data set on HA-Csx30 K551A/K553A; “M527A: without target RNA only the upper full-length band; with target RNA the upper band is faint and a product band stands just above the 50 kDa mark” in the data set on HA-Csx30 M527A; “S526A/Q428A/R530A/Q531A: without target RNA only the upper full-length band; with target RNA the upper band is faint and a product band stands just above the 50 kDa mark” in data set [2]. Besides, in data set [3], the “in vitro cleavage of Csx30 alanine mutants (immunoblot)” value was “mutating individual regions of the Csx29-Csx30 interface did not significantly affect Csx30 cleavage”.
Consider “dCas7-11-Csx29-crRNA complex (Cas7-11 D429A/D654A)”, for which the results for the “in vitro cleavage of truncated Csx30 (SDS-PAGE)” value in data set [4] and in data set [5] were “Csx30 fragments containing residues 396-565 were efficiently cleaved in vitro” and “even a twenty amino acid truncation (Csx301-544) abolished cleavage activity”, respectively. In data set [1], the “molar excess of Csx30 substrate cleaved in vitro” value is reported as “cleaving 100-fold molar excess of Csx30 substrate in minutes”.
